B1: Hairpin Ribozyme (parent)
chain: GUCCUCUUUCACGUGCGCGUGAAAGAGAGAAGUGAACCAGAGAAACACACGUUGUGGUAUAUUACCUGGUA

Variants of: B1
Assay: self-cleavage, relative activity (ratio to wild type); higher = more cleavage; co-transcriptional

Variant	self-cleavage
GUCCUCUUUCCCGUGCGCGUAAAAGAGAGAAGUGAACCAGAGAAACACACGUUGUGGUAUAUUACCUGGUA [A11C G21A]	0.605
GUCCUCUUUCCCGUGCGCGUCAAAGAGAGAAGUGAACCAGAGAAACACACGUUGUGGUAUAUUACCUGGUA [A11C G21C]	0.732
GUCCUCUUUCCCGUGCGCGUGAAAGAGAGAAGUGAACCAGAGAAACACACGUUGUGCUAUAUUACCUGGUA [A11C G57C]	0.145
GUCCUCUUUCCCGUGCGCGUGAAAGAGAUAAGUGAACCAGAGAAACACACGUUGUGGUAUAUUACCUGGUA [A11C G29U]	0.113
GUCCUCUUUCCCGUGCGCGUGAAAGAGACAAGUGAACCAGAGAAACACACGUUGUGGUAUAUUACCUGGUA [A11C G29C]	0.137
GUCCUCUUUCCCGUGCGCGUGAAAGAGAGAAGUGAACCAGAGAAACACACGUUGUGGUAUAUUACGUGGUA [A11C C66G]	0.0776
GUCCUCUUUCCCGUGCGCGAGAAAGAGAGAAGUGAACCAGAGAAACACACGUUGUGGUAUAUUACCUGGUA [A11C U20A]	0.774
GUCCUCUUUCCCGUGCGCGGGAAAGAGAGAAGUGAACCAGAGAAACACACGUUGUGGUAUAUUACCUGGUA [A11C U20G]	1.04
GUCCUCUUUCCCGUGCGCGUGAAAGAGAGAAGUGAACCAGAGAAACACACGUAGUGGUAUAUUACCUGGUA [A11C U53A]	0.919
GUCCUCUUUCCCGUGCGCGUGAAAGAGAGAAGUGAACCACAGAAACACACGUUGUGGUAUAUUACCUGGUA [A11C G40C]	0.182
GUCCUCUUUCCCGUGCGCGUGAAAGAGAGAAGUGAACCAUAGAAACACACGUUGUGGUAUAUUACCUGGUA [A11C G40U]	0.181
GUCCUCUUUCCCGUGCGCGUGAAAGAGAGAAGCGAACCAGAGAAACACACGUUGUGGUAUAUUACCUGGUA [A11C U33C]	0.252
GUCCUCUUUCCCGUGCGCGUGAAAGAGAGAAGAGAACCAGAGAAACACACGUUGUGGUAUAUUACCUGGUA [A11C U33A]	0.222
GUCCUCUUUCCCGUGCGCGUGAAAGAGAGAAGGGAACCAGAGAAACACACGUUGUGGUAUAUUACCUGGUA [A11C U33G]	0.0703
GUCCUCUUUCCCGUGCGCGUGAAAGAGAGAAGUGAACCAGAGAAACACACGUUGUGGUAUAUUAGCUGGUA [A11C C65G]	0.331
GUCCUCUUUCCCGUGCGCGUGAAAGAGAGAAGUGAACCAGAGAAACACACGUUGUUGUAUAUUACCUGGUA [A11C G56U]	0.0715
GUCCUCUUUCCCGUCCGCGUGAAAGAGAGAAGUGAACCAGAGAAACACACGUUGUGGUAUAUUACCUGGUA [A11C G15C]	0.752
GUCCUCUUUCCCGUACGCGUGAAAGAGAGAAGUGAACCAGAGAAACACACGUUGUGGUAUAUUACCUGGUA [A11C G15A]	0.819
GUCCUCUUUCCCGUGCACGUGAAAGAGAGAAGUGAACCAGAGAAACACACGUUGUGGUAUAUUACCUGGUA [A11C G17A]	0.759

Variant	self-cleavage
GUCCUCUUUCCCAUGCGCGUGAAAGAGAGAAGUGAACCAGAGAAACACACGUUGUGGUAUAUUACCUGGUA [A11C G13A]	0.661
GUCCUCUUUCCCGUGCGCGUGAAAGAGAGAAGUGAACCAGACAAACACACGUUGUGGUAUAUUACCUGGUA [A11C G42C]	0.441
GUCCUCUUUCCCGUGCGCGUGAAAGAGAGAAGUGAACCAGAGAAACAGACGUUGUGGUAUAUUACCUGGUA [A11C C48G]	0.0688
GUCCUCUUUCCCGUGCGCGUGAAAGAGAGAAGUGAACCAGAGAAACAAACGUUGUGGUAUAUUACCUGGUA [A11C C48A]	0.0917
GUCCUCUUUCCCGUGCGCGUGAAAGAGAGAAGUGAACCAGAGAAACAUACGUUGUGGUAUAUUACCUGGUA [A11C C48U]	0.266
GUCCUCUUUCCCGUGCGCGUGAAAGAGAGAAGUGAACCAGAGAAACACACGUUGUGGUAUAUUACCUCGUA [A11C G68C]	0.136
GUCCUCUUUCCCGUGCGCGUGAAAGAGAGAAGUGAACCAGAGAAACACACGUUGUGGUAUAUUACCUAGUA [A11C G68A]	0.248
GUCCUCUUUCCCGUGCGCUUGAAAGAGAGAAGUGAACCAGAGAAACACACGUUGUGGUAUAUUACCUGGUA [A11C G19U]	0.697
GUCCUCUUUCCCGUGCGCGUGAAAGAGAGAAGUGAACCAGAGAAACACACGUUGUGGGAUAUUACCUGGUA [A11C U58G]	0.696
GUCCUCUUUCCCGUGCGCGUGAAAGAGAGAAGUUAACCAGAGAAACACACGUUGUGGUAUAUUACCUGGUA [A11C G34U]	1.45
GUCCUCUUUCCCGUGCGCGUGAAAGAGAGAAGUGAACCAGAGAAACACACGUUGUGGUAUAUUACCUGAUA [A11C G69A]	0.381
GUCCUCUUUCCCGUGCGCGUGAAAGAGAGAAGUGAACCAGAGAAACACACGUUGUGGUAUAUUACCUGUUA [A11C G69U]	0.299
GUCCUCUUUCCCGUGCGCGUGAAAGAGAGAAGUGAACCAGAGAAACACAUGUUGUGGUAUAUUACCUGGUA [A11C C50U]	0.247
GUCCUCUUUCCCGUGCGCGUGAAAGAGAGAAGUGAACCAGAGAAACACACGCUGUGGUAUAUUACCUGGUA [A11C U52C]	1.06
GUCCUCUUUCCCGUGCGCGUGAAAUAGAGAAGUGAACCAGAGAAACACACGUUGUGGUAUAUUACCUGGUA [A11C G25U]	0.548
GUCCUCUUUCCCGUGCGCGUGAAAGAGAGAAGUGAACCAGAGAAACACACGUUGUGGUAUAGUACCUGGUA [A11C U62G]	0.199
GUCCUCUUUCCCGUGCGCGUGAAAGAGAGAAGUGAACCAGAGAAACACACAUUGUGGUAUAUUACCUGGUA [A11C G51A]	1.08
GUCCUCUUUCCCGUGCGCGUGAAAGAGAGAAGUGAACCAGAGAAACACACGUUGUGGUACAUUACCUGGUA [A11C U60C]	1.27
GUCCUCUUUCCCGCGCGCGUGAAAGAGAGAAGUGAACCAGAGAAACACACGUUGUGGUAUAUUACCUGGUA [A11C U14C]	0.68

Reference: the RNAGym collection of RNA variant scans (doi:10.7554/elife.80360)
